Experimental data: US20260116960A1 (SHANGHAI HONGCHENG BIOPHARMACEUTICAL, published 2026)

How the values were obtained:
[1] = target: T1, human PD-1 protein (Acro, Catalog No. PD1-H5221) (human, UniProt Q15116 25-167); experiment: BLI (Octet RED96e), antibody on AHC sensor, antigen as analyte 6.25-100 nM, 1:1 model
T1 construct: Bought protein; also called human PD1-his; not shown: his tag
Protocol: Octet® RED96e (ForteBio) was used to detect the affinity of trispecific antibodies to human PD-1, CTLA-4 and VEGFA. The specific method was as follows: the AHC Sensor was immersed in PBST (PBS containing 0.02% Tween) buffer for 10 minutes to activate the Sensor. The ligand (antibody to be tested) was diluted to 5 μg/mL with PBST buffer. […] The diluted ligand and analyte were added to the corresponding wells at 200 μL/well in triplicate. Program parameter settings: loading: 180 s, association: 180 s, dissociation: 600 s, regeneration: Gly-HCl pH 1.5, 30s, regeneration 3 times. […] Curve fit acceptance criteria: Full R\hat{ }2≥0.95.

[2] = target: T2, human PD-1 on the cell surface (human, UniProt Q15116 25-288); experiment: flow cytometry on activated human T cells (CD3+), PE anti-human IgG Fc
T2 construct: whole, on cells; also called cell surface PD-1
Protocol: (§1) Human peripheral blood mononuclear cells (PBMCs, Miaoshun (Shanghai) Biotechnology Co., Ltd., Catalog No.: A19K154025) were rapidly thawed in a 37° C. water bath, resuspended in T cell isolating solution, and counted. After centrifugation at 400 g for 10 minutes, the supernatant was removed and the cells were resuspended to 5×10⁷ cells/mL with T cell separation buffer. T cells were isolated according to the procedure of a T cell isolation kit (Stemcell, Catalog No.: 19051), and the obtained T cells were resuspended in culture medium. The cells were counted using NucleoCounter NC-200 and the T cell density was adjusted to approximately 1×10⁶ cells/mL. Dynabeads containing anti-CD3 and anti-CD28 antibodies (Invitrogen™, Catalog No.: 11132D) and 10 ng/ml hIL-2 (Peprotech, Catalog No.: 200-02) were added and cultured in a 37° C., 5% CO₂ incubator for 3 days. After removing Dynabeads and supernatant, the activated T cells were resuspended in FACS buffer. The cell density was adjusted to about 1×10⁶ cells/mL, and 100 μL of cell solution was added into a 96-well U-bottom plate, 1×10⁵ cells/well. After centrifugation at 500 g for 5 minutes, the supernatant was discarded and 100 μL of the trispecific antibody solution of the present application serially diluted 3-fold with FACS buffer was added in triplicate, with a starting concentration of 200 nM. After mixing, incubated at 4° C. for 60 minutes. After centrifugation and washing three times with FACS buffer, 100 μL/well of PE anti-human IgG Fc (Biolegend, Catalog No.: 366903) was added and incubated at 4° C. for 50 minutes. After washing the plate three times with FACS buffer, 100 μL/well of BV421 anti-human CD3 antibody (OKT3) (Biolegend, Catalog No.: 317344) was added and incubated at 4° C. for 50 minutes. After washing the plate three times with FACS buffer, 70 μL/well of PBS solution was added to resuspend the cells, and the fluorescent signal on CD3 T cells was detected on a flow cytometer (BD Cellesta). The binding activity was fitted using a four-parameter model, and the EC₅₀ value of each antibody binding to T cells was calculated.

[3] = target: T2, human PD-1 on the cell surface; experiment: blocking of PD-L1 binding to cell surface PD-1, comparison with pembrolizumab; comparison run with pembrolizumab, cell surface PD-1
[4] = target: T2, human PD-1 on the cell surface; experiment: flow cytometry competition, 293T-hPD-1 cells, biotin-human PD-L1
Protocol: 50 μL of antibody solution serially diluted 3-fold in FACS buffer was added in triplicate, with a starting concentration of 200 nM. After mixing, incubated at 4° C. for 60 minutes. After washing three times with FACS buffer, 100 μL/well of 1:800 diluted PE Streptavidin was added and incubated at 4° C. for 50 min. After washing three times with FACS buffer, 150 μL/well of PBS was added to resuspend the cells, and the fluorescence signal was detected on a flow cytometer (BECKMAN COULTER cytoFLEX). The four-parameter model was used to fit the binding activity and the IC₅₀ value of the blocking activity of each antibody was calculated.

[5] = target: T2, human PD-1 on the cell surface; experiment: flow cytometry, 293T-hPD-1 cells, batch FACS#1
Protocol: (§2) After centrifugation at 300 g for 5 minutes, the supernatant was discarded. The antibodies were serially diluted 3-fold with FACS buffer to obtain two gradient series solution FACS #1 and FACS #2, with the starting concentration of 200 nM (Table 5, FACS #1) or 100 nM (Table 5, FACS #2, FIG. 2), respectively. Then 100 μL/well was added to a 96-well plate in triplicate, mixed, and incubated at 4° C. for 60 min. The plate was centrifuged and washed three times with FACS buffer. 100 μL/well of 1:800 diluted AF647-anti-hIgG(H+L) (Jackson, Catalog No.: 109-605-003) was added and incubated at 4° C. for 50 minutes. After washing the plate three times with FACS buffer, 100 μL/well of FACS buffer was added to resuspend the cells, and the fluorescence signal was detected on a flow cytometer (BECKMAN COULTER cytoFLEX). The binding activity was fitted using a four-parameter model to calculate the EC₅₀ value of each antibody binding to PD-1.

[6] = target: T2, human PD-1 on the cell surface; experiment: flow cytometry, 293T-hPD-1 cells, comparison with pembrolizumab
Protocol: as §2

[7] = target: human PD-1 protein (Acro, PD1-H5257) (human, UniProt Q15116 25-167); experiment: competitive ELISA, PD-1 coated, biotin-PD-L1 as labelled ligand
Protocol: The next day, the plate was washed three times with PBS solution and blocked with 1% BSA-PBS solution at 37° C. for 1 hour. […] 100 μL of the antibody-protein mixture was added to each well of the blocked 96-well ELISA plate and incubated at 37° C. for 1 hour. After washing four times with PBST, 100 μL of Strep-HRP (BD, Catalog No. 554066) diluted 1:5000 was added to each well of the ELISA plate and incubated at 37° C. for 1 hour. After washing 4 times with PBST, TMB was used for color development. The absorbance at 450 nm and 630 nm was detected by a microplate reader, and OD450-OD630 was calculated. The fluorescence intensity was fitted using a four-parameter model, and the IC₅₀ value of the blocking activity of each antibody was calculated.

[8] = target: T2, human PD-1 on the cell surface; experiment: flow cytometry, 293T-hPD-1 cells, batch FACS#2
Protocol: as §2

[9] = target: T1, human PD-1 protein (Acro, Catalog No. …); experiment: ELISA, plate coated with human PD-1 protein
Protocol: ELISA was used to determine the activity of the trispecific antibodies binding to the PD-1 protein: 1 μg/mL human PD-1 protein (Acro, Catalog No.: PD1-H5221) was used to coat a high-adsorption 96-well ELISA plate and incubated at 4° C. overnight. On the next day, the plate was washed three times with PBST solution and blocked with 1% BSA-PBS solution at 37° C. for 1 hour. At the same time, 3-fold gradient dilutions of the antibody were prepared with 1% BSA-PBS solution, with a starting concentration of 10 nM. The antibodies of each gradient concentration were added to the blocked 96-well ELISA plate at 100 µL/well in triplicate and incubated at 37° C. for 1 hour. The plate was then washed three times with 0.05% PBST solution, and 100 μL/well of HRP-labeled secondary antibody (Sigma, Catalog No.: A0170) diluted at 1:5000 was added to the ELISA plate and incubated at 37° C. for 1 hour. The plate was washed three times with 0.05% PBST solution and developed with TMB. The absorbance of the 96-well ELISA plate at 450 nm was detected by an ELISA reader. The OD₄₅₀ value was fitted using a four-parameter model to calculate the EC₅₀ value of each antibody binding to PD-1.

[10] = target: T3, human CTLA-4 on the cell surface (human, UniProt P16410 36-223); experiment: flow cytometry competition, CHO-hCTLA-4 cells, biotin-human CD80
T3 construct: whole, on cells; also called CHO-hCTLA-4 cells; CHOK1-hCTLA4 cells
Protocol: CHO-hCTLA-4 cells were obtained by trypsin digestion, washed twice with PBS containing 2% FBS (FACS buffer), and resuspended in FACS buffer. 200 μL of the cells were added to a 96-well U-bottom plate, approximately 2×10⁵ cells/well. After centrifugation at 300 g for 5 minutes, the supernatant was discarded. […] After washing three times with FACS buffer, 100 μL/well of 1:800 diluted PE Streptavidin was added and incubated at 4° C. for 50 min. After washing three times with FACS buffer, 150 μL/well of PBS was added to resuspend the cells, and the fluorescence signal was detected on a flow cytometer (BECKMAN COULTER cytoFLEX). The four-parameter model was used to fit the binding activity and the IC₅₀ value of the blocking activity of each antibody was calculated.

[11] = target: T3, human CTLA-4 on the cell surface; experiment: flow cytometry competition, 293T-hPD-1-hCTLA-4 cells (PD-1 co-expressed), biotin-human CD80
Protocol: PD-1 and CTLA-4 are co-expressed on functionally exhausted T cells in the tumor microenvironment, and the expression level of PD-1 is higher than that of CTLA-4. […] 200 μL of the cells were added to a 96-well U-bottom plate, approximately 1.4×10⁵ cells/well. After centrifugation at 300 g for 5 minutes, the supernatant was discarded. […] After washing three times with FACS buffer, 100 μL/well of 1:800 diluted PE Streptavidin was added and incubated at 4° C. for 50 min. After washing three times with FACS buffer, 150 μL/well of PBS was added to resuspend the cells, and the fluorescence signal was detected on a flow cytometer (BECKMAN COULTER cytoFLEX). The binding activity was fitted using a four-parameter model, and the IC₅₀ value of the blocking activity of each antibody was calculated.

[12] = target: T3, human CTLA-4 on the cell surface; experiment: flow cytometry on activated human T cells (CD3+), PE anti-human IgG Fc
Protocol: as §1

[13] = target: T3, human CTLA-4 on the cell surface; experiment: flow cytometry, CHO-hCTLA-4 cells, batch FACS#3

T3 sequence (P16410 36-223): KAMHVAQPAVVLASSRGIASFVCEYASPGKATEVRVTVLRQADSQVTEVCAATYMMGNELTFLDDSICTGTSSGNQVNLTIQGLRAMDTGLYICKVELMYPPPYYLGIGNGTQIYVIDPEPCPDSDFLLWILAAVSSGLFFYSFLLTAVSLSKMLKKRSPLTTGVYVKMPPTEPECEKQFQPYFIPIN
T2 sequence (Q15116 25-288): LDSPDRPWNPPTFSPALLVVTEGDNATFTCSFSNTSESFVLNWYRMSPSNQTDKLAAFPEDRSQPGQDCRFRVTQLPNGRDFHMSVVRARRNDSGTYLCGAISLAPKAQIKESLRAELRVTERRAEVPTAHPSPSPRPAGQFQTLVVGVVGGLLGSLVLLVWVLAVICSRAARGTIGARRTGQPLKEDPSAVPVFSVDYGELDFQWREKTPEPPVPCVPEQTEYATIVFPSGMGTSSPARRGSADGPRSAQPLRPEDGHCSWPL
T1 sequence (Q15116 25-167 limits assumed): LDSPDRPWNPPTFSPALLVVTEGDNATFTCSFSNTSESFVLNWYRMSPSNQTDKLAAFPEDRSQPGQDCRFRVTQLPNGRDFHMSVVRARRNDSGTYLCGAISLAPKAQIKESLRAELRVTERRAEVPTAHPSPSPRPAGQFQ
human PD-1 protein (Acro, PD1-H5257), sequence (Q15116 25-167 limits assumed): as above

B1: CQ1-3/1-11-hIgG4 antibody (antibody, V domains shown)
VH: EVQLVESGGGLVQPGGSLRLSCAASGFTFSSYGMSWVRQAPGKGLEWVSTISGGGRDTYYPDSVKGRFTISRDNSKNTLYLQMNSLRAEDTAVYYCARQNGITWFADWGQGTLVTVSS
VL: DIQMTQSPSSLSASVGDRVTITCRASESVDNYGISFMNWYQQKPGKAPKLLIYAASNQGSGVPSRFSGSGSGTDFTLTISSLQPEDFATYYCQQSKEVPWTFGGGTKVEIKR
notes: also called anti-PD-1 antibody CQ1-3/1-11
[1]
  Kd: 1.96 nM
[2]
  EC50: 0.244 nM
[3]
  IC50: 3.19 nM
[4]
  IC50: 4 nM
[5]
  EC50: 2.8 nM
[6]
  EC50: 4.34 nM
[7]
  IC50: 0.731 nM
[8]
  EC50: 1.12 nM
[9]
  EC50: 0.041 nM

B2: 202F1-hIgG4 antibody (antibody, V domains shown)
VH: EVQLLESGGGLVQPGGSLRLSCAASGSIFSINHMAWYRQAPGKQRELVAGVNSRGTTNYVDSVKGRFTISRDNSKNTLYLQMNSLRAEDTAVYYCRALGGAVAAWGQGTLVTVSS
[10]
  IC50: 10.1 nM
[11]
  IC50: 4.74 nM
[12]
  EC50: 1.46 nM
[13]
  EC50: 2.31 nM
